Article PMC6358605 (2019)

B1: Full-length mouse MANF (wild-type) (natural protein)
chain: LRPGDCEVCISYLGRFYQDLKDRDVTFSPATIEEELIKFCREARGKENRLCYYIGATDDAATKIINEVSKPLAHHIPVEKICEKLKKKDSQICELKYDNQIDLSTVDLKKLRVKELKKILDDWGEMCKGCAEKSDYIRKINELMPKYAPKAASARTDL
B2: SAP domain (126-169) (domain or fragment)
chain: TVDLKKLRVKELKKILDDWGEMCKGCAEKSDYIRKINELMPKYA
B3: biotinylated AviTag-BiP^19–413 (NBD) (domain or fragment)
chain: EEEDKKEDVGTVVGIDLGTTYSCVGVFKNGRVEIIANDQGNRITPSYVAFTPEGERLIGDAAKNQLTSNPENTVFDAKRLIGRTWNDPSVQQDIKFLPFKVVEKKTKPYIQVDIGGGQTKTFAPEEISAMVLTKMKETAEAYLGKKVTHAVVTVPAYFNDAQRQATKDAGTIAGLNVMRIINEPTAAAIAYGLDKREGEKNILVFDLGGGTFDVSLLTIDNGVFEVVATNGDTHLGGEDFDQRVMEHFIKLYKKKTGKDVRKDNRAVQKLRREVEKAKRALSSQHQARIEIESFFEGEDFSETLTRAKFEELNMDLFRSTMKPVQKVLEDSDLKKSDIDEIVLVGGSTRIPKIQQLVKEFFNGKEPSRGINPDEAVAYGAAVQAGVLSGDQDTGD
modifications: biotin (on the AviTag, by E. coli BirA)

How the values were obtained:
[1] = molecular target: B3; assay: BLI; steady-state K1/2 max
[2] = molecular target: B1; assay: BLI; K1/2 max, steady state

Row | Binder | Kd [1] | Kd [2]
1 | B1 | 13.9 µM | 
2 | B2 | 10.3 µM | 
3 | B3 |  | 16 µM
